These are literature values, as cited in paper PMC11811815.

The target of the data set is Usp18 (Mus musculus) (UniProt Q9WTV6).
UniProt Q9WTV6, sequence (Q9WTV6 whole entry): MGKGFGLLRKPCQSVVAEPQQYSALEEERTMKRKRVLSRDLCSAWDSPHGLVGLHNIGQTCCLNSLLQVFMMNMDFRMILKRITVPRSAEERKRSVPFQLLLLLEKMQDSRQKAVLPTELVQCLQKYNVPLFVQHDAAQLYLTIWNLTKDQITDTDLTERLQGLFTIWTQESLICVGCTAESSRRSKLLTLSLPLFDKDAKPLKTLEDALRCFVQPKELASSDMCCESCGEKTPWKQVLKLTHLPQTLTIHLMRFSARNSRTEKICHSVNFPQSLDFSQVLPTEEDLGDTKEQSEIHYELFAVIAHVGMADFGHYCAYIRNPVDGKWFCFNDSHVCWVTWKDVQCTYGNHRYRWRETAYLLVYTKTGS

On to Isg15 (from UniProt Q64339), for which the Kd was 1.3 µM.

In general, Kd refers to the concentration at which binding is half-saturated.
